# Results taken from paper PMC3516755.
# Biological target: rGlu^1-hPg[S741A] (human)
# Experiment: SPR
Substance,Kd,koff,kon
rSK_(AP53) (natural protein),321 nM,0.00246 s⁻¹,–
rSK_(NS210) (natural protein),–,0.00737 s⁻¹,302000 M⁻¹ s⁻¹
rSK_(NS223) (natural protein),255 nM,0.00178 s⁻¹,–
rSK_(NS53) (natural protein),–,0.00616 s⁻¹,1.18e+06 M⁻¹ s⁻¹
rSK_(NS931) (natural protein),–,0.00467 s⁻¹,375000 M⁻¹ s⁻¹
rSK_(NZ131) (natural protein),–,0.0087 s⁻¹,1.02e+06 M⁻¹ s⁻¹
rSK_(NS88.2) (natural protein),202 nM,0.00314 s⁻¹,15500 M⁻¹ s⁻¹
rSK_(NS455) (natural protein),232 nM,0.00306 s⁻¹,13200 M⁻¹ s⁻¹
